Results: patent US20050106100

Tests used:
Ac-PLG˜LWA-Ahxh-Hynic = target: T1, Ac-PLG˜LWA-Ahxh-Hynic (not fully specified)
T1 chain: PLGLWA

[1] = target: T2, Ac-NLys-PLG˜LL-Ahxh-Hynic (not fully specified)
T2 chain: XPLGLL

Ac-PRG˜LLT-Ahxh-Hynic = target: T3, Ac-PRG˜LLT-Ahxh-Hynic
T3 chain: PRGLLT

[2] = target: T4, H-DArg-P-Cit-G˜cLeu-LA-Ahxh-Hynic (not fully specified)
T4 chain: RPXGXLA

[3] = target: T5, Ac-P-Cit-G˜Nle-LA-Ahxh-Hynic (not fully specified)
T5 chain: PXGXLA

[4] = target: T6, Ac-POG˜Hphe-LTR-Ahxh-Hynic
T6 chain: PXGXLTR

[5] = target: T7, Ac-PL-NLys˜Ahp-YL-Ahxh-Ac[C14] (not fully specified)
T7 chain: PLXXYL

[6] = target: T8, Ac-PLG˜Hphe-YLA-Ahxh-Hynic
T8 chain: PLGXYLA

Ac-PLG˜LY-Ahxh-Ac[C14] = target: T9, Ac-PLG˜LY-Ahxh-Ac[C14] (not fully specified)
T9 chain: PLGLY

Ac-PLG˜LYT-Ahxh-Hynic = target: T10, Ac-PLG˜LYT-Ahxh-Hynic (not fully specified)
T10 chain: PLGLYT

Ac-PRQ˜ITA-Ahxh-Hynic = target: T11, Ac-PRQ˜ITA-Ahxh-Hynic
T11 chain: PRQITA

[7] = target: T12, Ac-POG˜Hphe-Smc-T-Ahxh-Hynic
T12 chain: PXGXXT

[8] = target: T13, Ac-P-NLys-R˜LTA-Ahxh-Hynic (not fully specified)
T13 chain: PXRLTA

[9] = target: T14, Ac-PLG˜Hphe-RLA-Ambh-Hynic
T14 chain: PLGXRLA

Ac-PLG˜LOL-Ahxh-Hynic = target: T15, Ac-PLG˜LOL-Ahxh-Hynic (not fully specified)
T15 chain: PLGLXL

[10] = target: T16, Ac-P-Cit-G˜Tle-LA-Ahxh-Hynic (not fully specified)
T16 chain: PXGXLA

[11] = target: T17, Ac-PLG˜Hphe-K(Me)2-L-Ahxh-Hynic (not fully specified)
T17 chain: PLGXKL

[12] = target: T18, Ac-PLG˜Ahp-OL-Ahxh-Ac[C14] (not fully specified)
T18 chain: PLGXXL

Ac-PLG˜LYA-Ahxh-Hynic = target: T19, Ac-PLG˜LYA-Ahxh-Hynic (not fully specified)
T19 chain: PLGLYA

[13] = target: T20, Ac-PLG˜Hphe-RLA-Ahxh-Hynic
T20 chain: PLGXRLA

[14] = target: T21, Ac-P-Cit-G˜Chg-LA-Ahxh-Hynic (not fully specified)
T21 chain: PXGXLA

[15] = target: T22, Ac-PLG˜Cit-LA-Ahxh-Ac[C14] (not fully specified)
T22 chain: PLGXLA

[16] = target: T23, Ac-PLG˜L-Pya-L-Ahxh-Ac[C14] (not fully specified)
T23 chain: PLGLXL

Ac-PLG˜LR-Ahxh-Hynic = target: T24, Ac-PLG˜LR-Ahxh-Hynic (not fully specified)
T24 chain: PLGLR

[17] = target: T25, Ac-P-Cha-G˜Smc-HA-Ahxh-Hynic (not fully specified)
T25 chain: PXGXHA

[18] = target: T26, Ac-P-NMeArg-R˜LTA-Ambh-Hynic (not fully specified)
T26 chain: PRRLTA

Ac-NGlu-POG˜Hphe-L-Hynic = target: T27, Ac-NGlu-POG˜Hphe-L-Hynic (not fully specified)
T27 chain: XPXGXL

[19] = target: T28, Ac-NLys-PLG˜Hphe-RLA-Ahxh-Hynic (not fully specified)
T28 chain: XPLGXRLA

Ac-PLG˜L-Cha-Ahxh-Hynic = target: T29, Ac-PLG˜L-Cha-Ahxh-Hynic
T29 chain: PLGLX

Ac-PLG˜LYT-Ahxh-Ac[C14] = target: T30, Ac-PLG˜LYT-Ahxh-Ac[C14] (not fully specified)
T30 chain: PLGLYT

[20] = target: T31, Ac-P-Cit-Hse˜Hphe-SA-Ahxh-Hynic (not fully specified)
T31 chain: PXXXSA

[21] = target: T32, Ac-PLG˜S(OBn)-LL-Ahxh-Hynic
T32 chain: PLGSLL

[22] = target: T33, Ac-P-Cit-G˜Hphe-LA-Ahxh-Ac[C14] (not fully specified)
T33 chain: PXGXLA

Ac-POG˜LLA-Ahxh-Hynic = target: T34, Ac-POG˜LLA-Ahxh-Hynic
T34 chain: PXGLLA

[23] = target: T35, Ac-NGlu-PLG˜Hphe-YL-Ahxh-Ac[C14] (not fully specified)
T35 chain: XPLGXYL

Suc-PLG˜LYT-Ahxh-Hynic = target: T36, Suc-PLG˜LYT-Ahxh-Hynic
T36 chain: PLGLYT

[24] = target: T37, Ac-PLG˜L-Cha-Ahxh-Ac[C14] (not fully specified)
T37 chain: PLGLX

[25] = target: T38, Ac-P-Cit-G˜S(OBn)-LA-Ahxh-Hynic (not fully specified)
T38 chain: PXGSLA

[26] = target: T39, Hynic-ff-Ahx-PLG˜Hphe-OLEE-OH
T39 chain: FFXPLGXXLEE

[27] = target: T40, NLys-PLG˜Hphe-YL-Ambh-Hynic
T40 chain: XPLGXYL

[28] = target: T41, Ac-PLG˜Ahp-YL-Ahxh-Ac[C14] (not fully specified)
T41 chain: PLGXYL

[29] = target: T42, Ac-P-Cit-G˜Hphe-OL-Ahxh-Ac[C14] (not fully specified)
T42 chain: PXGXXL

[30] = target: T43, H-NLys-PLG˜LYT-Ahxh-Hynic (not fully specified)
T43 chain: XPLGLYT

Ac-POG˜Hphe-L-Ambh-Hynic = target: T44, Ac-POG˜Hphe-L-Ambh-Hynic
T44 chain: PXGXL

[31] = target: T45, Ac-Csa-PLG˜Hphe-YL-Ambh-Hynic (not fully specified)
T45 chain: XPLGXYL

Ac-PLG˜LYS-Ahxh-Ac[C14] = target: T46, Ac-PLG˜LYS-Ahxh-Ac[C14] (not fully specified)
T46 chain: PLGLYS

[32] = target: T47, Ac-PLG˜Hphe-RL-Ahxh-Hynic
T47 chain: PLGXRL

[33] = target: T48, Ac-POG˜Hphe-LTR-Ahxh-Ac[C14]
T48 chain: PXGXLTR

[34] = target: T49, Ac-PLG˜Hphe-YL-Ambh-Hynic
T49 chain: PLGXYL

[35] = target: T50, Ac-PLG˜Hphe-OLEE-Ahx-Hynic
T50 chain: PLGXXLEE

[36] = target: T51, Ac-PLG˜Hphe-OLR-Ahxh-Hynic
T51 chain: PLGXXLR

B1: MMP-2 (protein)
chain: APSPIIKFPGDVAPKTDKELAVQYLNTFYGCPKESCNLFVLKDTLKKMQKFFGLPQTGDLDQNTIETMRKPRCGNPDVANYNFFPRKPKWDKNQITYRIIGYTPDLDPETVDDAFARAFQVWSDVTPLRFSRIHDGEADIMINFGRWEHGDGYPFDGKDGLLAHAFAPGTGVGGDSHFDDDELWTLGEGQVVRVKYGNADGEYCKFPFLFNGKEYNSCTDTGRSDGFLWCSTTYNFEKDGKYGFCPHEALFTMGGNAEGQPCKFPFRFQGTSYDSCTTEGRTDGYRWCGTTEDYDRDKKYGFCPETAMSTVGGNSEGAPCVFPFTFLGNKYESCTSAGRSDGKMWCATTANYDDDRKWGFCPDQGYSLFLVAAHEFGHAMGLEHSQDPGALMAPIYTYTKNFRLSQDDIKGIQELYGASPDIDLGTGPTPTLGPVTPEICKQDIVFDGIAQIRGEIFFFKDRFIWRTVTPRDKPMGPLLVATFWPELPEKIDAVYEAPQEEKAVFFAGNEYWIYSASTLERGYPKPLTSLGLPPDVQRVDAAFNWSKNKKTYIFAGDKFWRYNEVKKKMDPGFPKLIADAWNAIPDNLDAVVDLQGGGHSYFFKGAYYLKLENQSLKSVKFGSIKSDWLGC
Kcat/Km (Ac-PLG˜LWA-Ahxh-Hynic): > 500000 M⁻¹ s⁻¹
Kcat/Km [1]: 76300 M⁻¹ s⁻¹
Kcat/Km (Ac-PRG˜LLT-Ahxh-Hynic): 98600 M⁻¹ s⁻¹
Kcat/Km [2]: 77 M⁻¹ s⁻¹
Kcat/Km [3]: 174000 M⁻¹ s⁻¹
Kcat/Km [4]: > 500000 M⁻¹ s⁻¹
Kcat/Km [5]: 0 M⁻¹ s⁻¹
Kcat/Km [6]: 221000 M⁻¹ s⁻¹
Kcat/Km (Ac-PLG˜LY-Ahxh-Ac[C14]): 283000 M⁻¹ s⁻¹
Kcat/Km (Ac-PLG˜LYT-Ahxh-Hynic): 186000 M⁻¹ s⁻¹
Kcat/Km (Ac-PRQ˜ITA-Ahxh-Hynic): 2400 M⁻¹ s⁻¹
Kcat/Km [7]: > 500000 M⁻¹ s⁻¹
Kcat/Km [8]: 0 M⁻¹ s⁻¹
Kcat/Km [9]: 197 M⁻¹ s⁻¹
Kcat/Km (Ac-PLG˜LOL-Ahxh-Hynic): 91400 M⁻¹ s⁻¹
Kcat/Km [10]: 164 M⁻¹ s⁻¹
Kcat/Km [11]: 72000 M⁻¹ s⁻¹
Kcat/Km [12]: 4970 M⁻¹ s⁻¹
Kcat/Km (Ac-PLG˜LYA-Ahxh-Hynic): 404000 M⁻¹ s⁻¹
Kcat/Km [13]: 64000 M⁻¹ s⁻¹
Kcat/Km [14]: 14400 M⁻¹ s⁻¹
Kcat/Km [15]: 16300 M⁻¹ s⁻¹
Kcat/Km [16]: 93000 M⁻¹ s⁻¹
Kcat/Km (Ac-PLG˜LR-Ahxh-Hynic): 162000 M⁻¹ s⁻¹
Kcat/Km [17]: 146000 M⁻¹ s⁻¹
Kcat/Km [18]: 879 M⁻¹ s⁻¹
Kcat/Km (Ac-NGlu-POG˜Hphe-L-Hynic): 265 M⁻¹ s⁻¹
Kcat/Km [19]: 461000 M⁻¹ s⁻¹
Kcat/Km (Ac-PLG˜L-Cha-Ahxh-Hynic): 120000 M⁻¹ s⁻¹
Kcat/Km (Ac-PLG˜LYT-Ahxh-Ac[C14]): 413000 M⁻¹ s⁻¹
Kcat/Km [20]: 91400 M⁻¹ s⁻¹
Kcat/Km [21]: 180000 M⁻¹ s⁻¹
Kcat/Km [22]: > 750000 M⁻¹ s⁻¹
Kcat/Km (Ac-POG˜LLA-Ahxh-Hynic): > 500000 M⁻¹ s⁻¹
Kcat/Km [23]: 351000 M⁻¹ s⁻¹
Kcat/Km (Suc-PLG˜LYT-Ahxh-Hynic): 141000 M⁻¹ s⁻¹
Kcat/Km [24]: 359000 M⁻¹ s⁻¹
Kcat/Km [25]: > 250000 M⁻¹ s⁻¹
Kcat/Km [26]: 81600 M⁻¹ s⁻¹
Kcat/Km [27]: 121000 M⁻¹ s⁻¹
Kcat/Km [28]: 38700 M⁻¹ s⁻¹
Kcat/Km [29]: 42500 M⁻¹ s⁻¹
Kcat/Km [30]: 85100 M⁻¹ s⁻¹
Kcat/Km (Ac-POG˜Hphe-L-Ambh-Hynic): 77700 M⁻¹ s⁻¹
Kcat/Km [31]: 19500 M⁻¹ s⁻¹
Kcat/Km (Ac-PLG˜LYS-Ahxh-Ac[C14]): > 500000 M⁻¹ s⁻¹
Kcat/Km [32]: 242000 M⁻¹ s⁻¹
Kcat/Km [33]: > 500000 M⁻¹ s⁻¹
Kcat/Km [34]: 63200 M⁻¹ s⁻¹
Kcat/Km [35]: 8020 M⁻¹ s⁻¹
Kcat/Km [36]: 46600 M⁻¹ s⁻¹

B2: human MMP-9 (protein)
chain: MRTPRCGVPDLGRFQTFEGDLKWHHHNITYWIQNYSEDLPRAVIDDAFARAFALWSAVTPLTFTRVYSRDADIVIQFGVAEHGDGYPFDGKDGLLAHAFPPGPGIQGDAHFDDDELWSLGKGVVVPTRFGNADGAACHFPFIFEGRSYSACTTDGRSDGLPWCSTTANYDTDDRFGFCPSERLYTQDGNADGKPCQFPFIFQGQSYSACTTDGRSDGYRWCATTANYDRDKLFGFCPTRADSTVMGGNSAGELCVFPFTFLGKEYSTCTSEGRGDGRLWCATTSNFDSDKKWGFCPDQGYSLFLVAAHEFGHALGLDHSSVPEALMYPMYRFTEGPPLHKDDVNGIRHLYGPRPEPEPRPPTTTTPQPTAPPTVCPTGPPTVHPSERPTAGPTGPPSAGPTGPPTAGPSTATTVPLSPVDDACNVNIFDAIAEIGNQLYLFKDGKYWRFSEGRGSRPQGPFLIADKWPALPRKLDSVFEERLSKKLFFFSGRQVWVYTGASVLGPRRLDKLGLGADVAQVTGALRSGRGKMLLFSGRRLWRFDVKAQMVDPRSASEVDRMFPGVPLDTHDVFQYREKAYFCQDRFYWRVSSRSELNQVDQVGYVTYDILQCPED
Kcat/Km (Ac-PLG˜LWA-Ahxh-Hynic): > 500000 M⁻¹ s⁻¹
Kcat/Km [1]: 83200 M⁻¹ s⁻¹
Kcat/Km (Ac-PRG˜LLT-Ahxh-Hynic): 73300 M⁻¹ s⁻¹
Kcat/Km [2]: 0 M⁻¹ s⁻¹
Kcat/Km [3]: 116000 M⁻¹ s⁻¹
Kcat/Km [4]: 105000 M⁻¹ s⁻¹
Kcat/Km [5]: 0 M⁻¹ s⁻¹
Kcat/Km [6]: 201000 M⁻¹ s⁻¹
Kcat/Km (Ac-PLG˜LY-Ahxh-Ac[C14]): 336000 M⁻¹ s⁻¹
Kcat/Km (Ac-PLG˜LYT-Ahxh-Hynic): 223000 M⁻¹ s⁻¹
Kcat/Km (Ac-PRQ˜ITA-Ahxh-Hynic): 3520 M⁻¹ s⁻¹
Kcat/Km [7]: 85400 M⁻¹ s⁻¹
Kcat/Km [8]: 0 M⁻¹ s⁻¹
Kcat/Km [9]: 4550 M⁻¹ s⁻¹
Kcat/Km (Ac-PLG˜LOL-Ahxh-Hynic): 39400 M⁻¹ s⁻¹
Kcat/Km [10]: 0 M⁻¹ s⁻¹
Kcat/Km [11]: 55000 M⁻¹ s⁻¹
Kcat/Km [12]: 9340 M⁻¹ s⁻¹
Kcat/Km (Ac-PLG˜LYA-Ahxh-Hynic): 512000 M⁻¹ s⁻¹
Kcat/Km [13]: 57700 M⁻¹ s⁻¹
Kcat/Km [14]: 20700 M⁻¹ s⁻¹
Kcat/Km [15]: 34000 M⁻¹ s⁻¹
Kcat/Km [16]: 162000 M⁻¹ s⁻¹
Kcat/Km (Ac-PLG˜LR-Ahxh-Hynic): 143000 M⁻¹ s⁻¹
Kcat/Km [17]: > 250000 M⁻¹ s⁻¹
Kcat/Km [18]: 792 M⁻¹ s⁻¹
Kcat/Km (Ac-NGlu-POG˜Hphe-L-Hynic): 613 M⁻¹ s⁻¹
Kcat/Km [19]: 373000 M⁻¹ s⁻¹
Kcat/Km (Ac-PLG˜L-Cha-Ahxh-Hynic): 147000 M⁻¹ s⁻¹
Kcat/Km (Ac-PLG˜LYT-Ahxh-Ac[C14]): > 500000 M⁻¹ s⁻¹
Kcat/Km [20]: 38300 M⁻¹ s⁻¹
Kcat/Km [21]: 187000 M⁻¹ s⁻¹
Kcat/Km [22]: 652000 M⁻¹ s⁻¹
Kcat/Km (Ac-POG˜LLA-Ahxh-Hynic): 187000 M⁻¹ s⁻¹
Kcat/Km [23]: 213000 M⁻¹ s⁻¹
Kcat/Km (Suc-PLG˜LYT-Ahxh-Hynic): 81000 M⁻¹ s⁻¹
Kcat/Km [24]: 475000 M⁻¹ s⁻¹
Kcat/Km [25]: > 250000 M⁻¹ s⁻¹
Kcat/Km [26]: 6680 M⁻¹ s⁻¹
Kcat/Km [27]: 264000 M⁻¹ s⁻¹
Kcat/Km [28]: 60400 M⁻¹ s⁻¹
Kcat/Km [29]: 28600 M⁻¹ s⁻¹
Kcat/Km [30]: 149000 M⁻¹ s⁻¹
Kcat/Km (Ac-POG˜Hphe-L-Ambh-Hynic): 22000 M⁻¹ s⁻¹
Kcat/Km [31]: 41600 M⁻¹ s⁻¹
Kcat/Km (Ac-PLG˜LYS-Ahxh-Ac[C14]): > 500000 M⁻¹ s⁻¹
Kcat/Km [32]: 168000 M⁻¹ s⁻¹
Kcat/Km [33]: 246000 M⁻¹ s⁻¹
Kcat/Km [34]: 190000 M⁻¹ s⁻¹
Kcat/Km [35]: 1990 M⁻¹ s⁻¹
Kcat/Km [36]: 22100 M⁻¹ s⁻¹
